Measurements as given in patent US20250297005A1 (FORTVITA BIOLOGICS SINGAPORE PTE, published 2025).

T1: human CLDN18.2 on cells (HEK293-hCLDN18.2, DAN-G-hCLDN18.2, NUGC-4) (human, UniProt P56856-2 1-261)
T1 construct: whole, on cells; Transfected full-length gene in HEK293 and DAN-G cells; endogenous in the gastric cancer line NUGC-4; also called Claudin18.2
T1 sequence (looked up): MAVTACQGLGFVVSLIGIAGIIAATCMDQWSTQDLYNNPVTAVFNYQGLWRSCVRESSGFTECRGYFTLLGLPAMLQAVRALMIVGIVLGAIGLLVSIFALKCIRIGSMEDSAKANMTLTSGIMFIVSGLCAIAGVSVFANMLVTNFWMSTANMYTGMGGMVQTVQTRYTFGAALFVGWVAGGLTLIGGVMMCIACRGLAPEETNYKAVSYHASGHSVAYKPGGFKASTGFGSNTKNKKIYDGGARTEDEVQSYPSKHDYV


Experiments:
[1] = target: T1, human CLDN18.2 on cells …; assay: flow cytometry of hybridoma supernatant on HEK293-hCLDN18.2 cells
Method: In the present invention, H2L2 fully human antibody transgenic mice (purchased from Harbour BioMed) were immunized with the cells obtained in Example 1 (CHO-hCLDN18.2) by using the hybridoma technology. Spleen cells from the mice were then harvested and electrofused with myeloma cells. […] The test cells (HEK293-hCLDN18.2) obtained in Example 1 were counted, diluted to 1×10⁶ cells/mL, and then added to a U-bottom 96-well plate at 100 µL/well. The cells were centrifuged at 500 g for 5 min, and the cell medium was removed. The hybridoma culture supernatant in a 96-well plate was added to the U-bottom plate at 100 μL/well, the cells were resuspended, and the suspension was left to stand on ice for 30 min. The suspension was centrifuged at 500 g for 5 min, the supernatant was removed, and the cells were washed once with PBS. 100 μL of FITC-labeled anti-mouse Fab secondary antibody (1:500 dilution in PBS) was added to each well, and 100 μL of FITC-labeled anti-human Fab secondary antibody was added to the positive control antibody. The resulting mixture was incubated on ice in the dark for 30 min. The mixture was centrifuged at 500 g for 5 min, the supernatant was removed, and the cells were washed once with PBS. The cells were resuspended in 50 μL of 1×PBS, and the suspension was loaded for FACS assay. […]

[2] = target: T1, human CLDN18.2 on cells …; assay: cell-based or functional assay

Binder	binding result [1]	EC50 of in vitro T cell (PBMC) killing of gastric cancer cells NUGC-4 [2] [pM]	EC50 of in vitro T cell (PBMC) killing of pancreatic cancer cells DAN-G-hCLDN18.2 [2] [pM]
fully human antibody clone HB37A6 (hybridoma culture supernatant) (antibody, V domains shown, Tested as hybridoma supernatant from H2L2 transgenic mice; also called anti-CLDN18.2 antibody) VH: EVQLLDSGGGLVQPGGSLRLSCAASGFTFSSYVMSWVRQAPGKGLNWVSTISHSGGSTYYADSVKGRFTISRDNSKNTLYLQMNSLRAEDTAVYYCAIDAPYYDILTGYRYWGQGTLVTVSS VL: not shown	binds		
bispecific antibody 030 (anti-CLDN18.2 moiety HB37A6 x anti-CD3 moiety HzSP34.24) (bispecific antibody, human IgG1, kappa, lambda, L234A L235A) heavy 1: not shown light 1: not shown heavy 2: not shown light 2: QAVVTQEPSLTVSPGGTVTLTCRSSTGAVTTSNYANWVQQKPGQAPRGLIGGTNKRAPGVPARFSGSLLGDKAALTLLGAQPEDEAEYYCALWYSNLWVFGQGTKLTVLGQPKAAPSVTLFPPSSEELQANKATLVCLISDFYPGAVTVAWKADSSPVKAGVETTTPSKQSNNKYAASSYLSLTPEQWKSHRSYSCQVTHEGSTVEKTVAPTECS		< 1	< 0.1
bispecific antibody 032 (anti-CLDN18.2 moiety HB37A6 x anti-CD3 moiety HzSP34.87) (bispecific antibody, human IgG1, kappa, lambda, L234A L235A) heavy 1: not shown light 1: not shown heavy 2: not shown light 2: QAVVTQEPSLTVSPGGTVTLTCRSSTGAVTTSNYANWVQQKPGQAPRGLIGGTNKRAPGVPARFSGSLLGDKAALTLLGAQPEDEAEYYCALWYSNLWVFGQGTKLTVLGQPKAAPSVTLFPPSSEELQANKATLVCLISDFYPGAVTVAWKADSSPVKAGVETTTPSKQSNNKYAASSYLSLTPEQWKSHRSYSCQVTHEGSTVEKTVAPTECS		< 1	< 0.1
